Stoichiometry N data for 3 substances are collected here from publication PMC3074150.

Assay [1] addresses δ2K242A (Streptococcus pyogenes plasmid pSM19035).
For assay [2], the target named is δ2K248S (Streptococcus pyogenes plasmid pSM19035).
For assay [3], the target named is δ2K259A/K260A (Streptococcus pyogenes plasmid pSM19035).

For δ2K242A (enzyme), the stoichiometry N in assay [1] turned out to be 2.

As to δ2K248S (enzyme), the stoichiometry N in assay [2] was determined as 2.

Turning to δ2K259A/K260A (enzyme), the stoichiometry N in assay [3] was 2.

As a reminder, the stoichiometry N is the number of molecules, sites or subunits per partner or assembly.
